Test results: US9550817B2, “Men1 gene for diagnosis and treatment of diabetes” (THE TRUSTEES OF THE UNIVERSITY OF PENNSYLVANIA, priority 2006, dated 2017)

Target: T1, menin (Homo sapiens, UniProt O00255)
T1 construct: made in house; host or cells: E. coli
T1 sequence (O00255 1-610): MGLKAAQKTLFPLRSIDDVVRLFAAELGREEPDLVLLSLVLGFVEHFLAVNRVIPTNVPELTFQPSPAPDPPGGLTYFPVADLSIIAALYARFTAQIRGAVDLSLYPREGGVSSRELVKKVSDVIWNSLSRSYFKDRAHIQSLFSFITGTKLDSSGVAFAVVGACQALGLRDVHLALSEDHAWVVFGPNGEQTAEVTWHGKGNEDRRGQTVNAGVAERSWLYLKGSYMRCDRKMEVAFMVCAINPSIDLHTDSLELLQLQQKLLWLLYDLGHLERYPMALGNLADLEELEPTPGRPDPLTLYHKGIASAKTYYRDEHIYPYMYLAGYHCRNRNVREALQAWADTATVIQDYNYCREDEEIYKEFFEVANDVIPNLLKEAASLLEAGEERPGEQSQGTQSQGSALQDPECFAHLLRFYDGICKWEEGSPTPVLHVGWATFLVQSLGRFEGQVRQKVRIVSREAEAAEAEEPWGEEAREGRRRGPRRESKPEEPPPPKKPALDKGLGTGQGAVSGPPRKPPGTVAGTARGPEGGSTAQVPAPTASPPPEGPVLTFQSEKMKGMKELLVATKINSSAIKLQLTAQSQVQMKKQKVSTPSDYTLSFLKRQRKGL
Assay: Pull-down of menin by biotinylated peptides on streptavidin-agarose beads, Western blot with anti-menin antibody
Type: binding
Details: menin expressed in and purified from E. coli
Description: Biotinylated peptides were synthesized at the Peptide synthesis facility at Yale University, and loaded to streptavidin-agraose beads (Invitrogen, Inc), and incubated with menin expressed in and purified from E. coli. After multiple washings, the beads were analyzed via Western blot analysis using an anti-menin antibody.
Biotinylated peptides were synthesized, loaded to streptavidin-agraose beads (Invitrogen Inc), and incubated with menin expressed in and purified from E. coli. After multiple washings, the beads were analyzed via Western blot analysis using an anti-menin antibody. […] Especially, the peptide designated the sequence […] (SEQ ID No. 7).

binding of peptide to menin in vitro (FIG. 12): able to react with Men1
Sequence: MAHSCRWRFPGSGSCRWRFP (Human) [SEQ ID No. 7, short synthetic peptide from the N-terminus of MLL]
